# Assay results reported in patent publication US20170369545A1 (CENTRE NATIONAL DE LA RECHERCHE SCIENTIFIQUE, published 2017).
# Legend:
# [1] = biological target: T1, tyrosine kinase receptor MET on HeLa cells (UniProt P08581 25-1390, limits assumed); assay: cell-based or functional assay
# [2] = biological target: T1, tyrosine kinase receptor MET on HeLa …; assay: cell-based or functional assay; remark: listed apart in the source
# T1 sequence (P08581 25-1390 limits assumed): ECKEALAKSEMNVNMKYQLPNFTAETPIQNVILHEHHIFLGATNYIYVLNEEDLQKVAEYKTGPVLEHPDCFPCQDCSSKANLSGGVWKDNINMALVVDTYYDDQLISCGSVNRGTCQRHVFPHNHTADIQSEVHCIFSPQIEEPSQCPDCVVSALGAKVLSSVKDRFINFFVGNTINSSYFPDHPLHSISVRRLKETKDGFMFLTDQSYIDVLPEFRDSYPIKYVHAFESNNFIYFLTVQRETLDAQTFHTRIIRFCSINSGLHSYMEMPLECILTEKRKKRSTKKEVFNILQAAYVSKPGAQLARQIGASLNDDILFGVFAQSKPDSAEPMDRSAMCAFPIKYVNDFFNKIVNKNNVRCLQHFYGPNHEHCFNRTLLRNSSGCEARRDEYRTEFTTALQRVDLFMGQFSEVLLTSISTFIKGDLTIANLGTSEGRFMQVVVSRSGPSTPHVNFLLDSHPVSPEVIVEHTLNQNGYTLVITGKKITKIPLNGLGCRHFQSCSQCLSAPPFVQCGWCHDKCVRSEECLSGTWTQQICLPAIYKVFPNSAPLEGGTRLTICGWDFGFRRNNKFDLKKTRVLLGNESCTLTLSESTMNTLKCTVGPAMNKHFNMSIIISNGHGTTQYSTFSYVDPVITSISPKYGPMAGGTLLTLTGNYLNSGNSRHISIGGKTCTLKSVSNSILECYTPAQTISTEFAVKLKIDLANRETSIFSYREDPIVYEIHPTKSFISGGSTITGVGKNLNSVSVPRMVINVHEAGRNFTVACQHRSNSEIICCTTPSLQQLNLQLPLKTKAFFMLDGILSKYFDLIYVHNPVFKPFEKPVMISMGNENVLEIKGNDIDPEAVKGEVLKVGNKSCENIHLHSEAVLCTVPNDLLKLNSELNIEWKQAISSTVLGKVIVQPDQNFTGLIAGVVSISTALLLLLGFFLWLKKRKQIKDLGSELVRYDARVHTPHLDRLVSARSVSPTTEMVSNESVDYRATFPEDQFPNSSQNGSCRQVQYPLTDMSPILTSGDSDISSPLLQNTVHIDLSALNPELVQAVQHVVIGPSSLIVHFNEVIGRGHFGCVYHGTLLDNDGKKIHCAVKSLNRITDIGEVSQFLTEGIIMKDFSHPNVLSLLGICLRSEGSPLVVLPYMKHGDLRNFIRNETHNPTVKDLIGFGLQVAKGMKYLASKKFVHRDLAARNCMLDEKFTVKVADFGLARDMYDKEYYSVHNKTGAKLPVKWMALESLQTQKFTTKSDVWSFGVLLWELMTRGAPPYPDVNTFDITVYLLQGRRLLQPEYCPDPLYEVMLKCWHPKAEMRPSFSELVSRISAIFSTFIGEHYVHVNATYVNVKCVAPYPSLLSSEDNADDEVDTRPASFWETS
Binder,"EC50 (read off the curve), Akt phosphorylation (P-AKT) [P-AKT] [1] [pM]","EC50 (read off the curve), ERK phosphorylation (P-ERK) [P-ERK] [1] [pM]","ERK and Akt phosphorylation in HeLa cells (western blot, ALPHAScreen) [2] [pM]",MET phosphorylation in HeLa cells (western blot) [2] [pM],agonist activity against NK1 (ERK and Akt phosphorylation in HeLa cells) [2]
"HGF/SF-K1K1 (C-terminally tagged K1K1 protein, 6xHis tag) (designed binder) MAIRNCIIGKGRSYKGTVSITKSGIKCQPWSSMIPHEHSFLPSSYRGKDLQENYCRNPRGEEGGPWCFTSNPEVRYEVCDIPQCSEVECIIGKGRSYKGTVSITKSGIKCQPWSSMIPHEHSFLPSSYRGKDLQENYCRNPRGEEGGPWCFTSNPEVRYEVCDIPQCSEVEHHHHHH",~30,~30,~100,100,≥ 10 times (against NK1)
K1K1 variant 3 (GS-linker variant) (designed binder) MAIRNCIIGKGRSYKGTVSITKSGIKCQPWSSMIPHEHSFLPSSYRGKDLQENYCRNPRGEEGGPWCFTSNPEVRYEVCDIPQCGSGGCIIGKGRSYKGTVSITKSGIKCQPWSSMIPHEHSFLPSSYRGKDLQENYCRNPRGEEGGPWCFTSNPEVRYEVCDIPQCSEVE,,,~100,100,≥ 10 times (against NK1)
K1K1 variant 1 (tagless variant) (designed binder) MAIRNCIIGKGRSYKGTVSITKSGIKCQPWSSMIPHEHSFLPSSYRGKDLQENYCRNPRGEEGGPWCFTSNPEVRYEVCDIPQCSEVECIIGKGRSYKGTVSITKSGIKCQPWSSMIPHEHSFLPSSYRGKDLQENYCRNPRGEEGGPWCFTSNPEVRYEVCDIPQCSEVE,,,~100,100,≥ 10 times (against NK1)
K1K1 variant 2 (long linker variant) (designed binder) MAIRNCIIGKGRSYKGTVSITKSGIKCQPWSSMIPHEHSFLPSSYRGKDLQENYCRNPRGEEGGPWCFTSNPEVRYEVCDIPQCGGGGSLVPRGSGGGGSCIIGKGRSYKGTVSITKSGIKCQPWSSMIPHEHSFLPSSYRGKDLQENYCRNPRGEEGGPWCFTSNPEVRYEVCDIPQCSEVE,,,~100,100,≥ 10 times (against NK1)
